Data taken from patent publication US20250250357A1 (NANJING ZAIMING PHARMACEUTICAL, published 2025).

What was measured:
[1] = molecular target: T1, human MSLN-R3-his protein (human, UniProt Q13421 487-598); experiment: ELISA; antibody 10 nM
T1 construct: also called hMSLN-R3-his; not shown: His tag

[2] = molecular target: T1, human MSLN-R3-his protein; experiment: ELISA; antibody 0.001 nM
[3] = molecular target: T2, human MSLN-R2-his protein (human, UniProt Q13421 391-486); experiment: ELISA; antibody 0 nM (blank)
T2 construct: also called hMSLN-R2-his; not shown: His tag
T2 sequence (Q13421 other isoform, or with tags, fused parts or gaps): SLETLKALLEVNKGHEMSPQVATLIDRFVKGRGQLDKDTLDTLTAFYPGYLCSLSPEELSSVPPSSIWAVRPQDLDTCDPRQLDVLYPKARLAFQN

[4] = molecular target: T3, human MSLN protein, endogenously expressed on Hela and OVCAR3 cells (human, UniProt Q13421 296-598); experiment: FACS on OVCAR3 cells; antibody 20 nM
T3 construct: whole, on cells; also called mesothelin
T3 sequence (Q13421 other isoform, or with tags, fused parts or gaps): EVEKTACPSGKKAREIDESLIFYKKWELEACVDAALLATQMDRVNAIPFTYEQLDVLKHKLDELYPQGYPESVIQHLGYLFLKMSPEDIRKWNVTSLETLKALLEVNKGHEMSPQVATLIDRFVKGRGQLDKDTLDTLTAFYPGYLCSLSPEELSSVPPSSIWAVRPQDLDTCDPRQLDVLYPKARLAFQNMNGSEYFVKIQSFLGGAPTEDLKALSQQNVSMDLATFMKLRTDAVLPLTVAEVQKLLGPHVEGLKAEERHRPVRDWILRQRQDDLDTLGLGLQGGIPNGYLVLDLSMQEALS

[5] = molecular target: T4, human MSLN-FL-his protein (human, UniProt Q13421 296-580); experiment: competitive ELISA; row F2.17.3
T4 construct: made in HEK293E cells, purified on nickel column; also called hMSLN-FL-his; human MSLN full-length protein; not shown: His tag
T4 sequence (Q13421 other isoform, or with tags, fused parts or gaps): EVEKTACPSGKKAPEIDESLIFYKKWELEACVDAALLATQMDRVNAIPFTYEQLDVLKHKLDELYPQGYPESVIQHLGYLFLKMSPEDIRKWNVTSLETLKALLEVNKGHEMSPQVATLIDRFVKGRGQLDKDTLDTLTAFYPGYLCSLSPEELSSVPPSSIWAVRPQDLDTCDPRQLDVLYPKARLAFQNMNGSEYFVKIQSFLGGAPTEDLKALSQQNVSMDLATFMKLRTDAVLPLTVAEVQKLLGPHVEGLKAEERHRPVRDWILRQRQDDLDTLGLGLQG

[6] = molecular target: T4, human MSLN-FL-his protein; experiment: competitive ELISA; row F2.16.10
Method: (§1) In order to identify antigen-binding sites of antibodies, MSLN chimeric antibodies were grouped using competitive ELISA.
(§2) The chimeric antibodies were diluted to 2 μg/mL with PBS and allowed to coat 96-well high-adsorption ELISA plates at 50 μL/well. After the plates were coated at 4° C. overnight, 250 μL of a blocking buffer (PBS containing 2% (w/w) BSA) was added for two hours of blocking at room temperature. 40 μg/mL of the antibodies to be tested were added, and then the human MSLN-FL-His protein with an EC₈₀ concentration corresponding to each of the antibodies to be tested was added for incubation for 2 h. The plates were washed 5 times with PBS, an HRP-labeled anti-His secondary antibody (purchased from Genescript, Cat. No. A00612) was then added for incubation for 1 h, and the plates were washed 5 times again. A TMB substrate was added at 50 μL/well, and after 10 minutes of incubation at room temperature, a stop solution (1.0 M HCl) was added at 50 μL/well. OD₄₅₀ nm values were read using an ELISA plate reader (Insight, purchased from PerkinElmer), and the competition rate between the antibodies was calculated according to the OD₄₅₀ nm values using a formula.

[7] = molecular target: T4, human MSLN-FL-his protein; experiment: competitive ELISA; row F2.24.10
Method: as §1, §2

[8] = molecular target: T3, human MSLN protein, endogenously …; experiment: FACS on OVCAR3 cells; antibody 0.0064 nM
[9] = molecular target: T4, human MSLN-FL-his protein; experiment: competitive ELISA; row Tab108 (R3)

T1 sequence (Q13421 495-606): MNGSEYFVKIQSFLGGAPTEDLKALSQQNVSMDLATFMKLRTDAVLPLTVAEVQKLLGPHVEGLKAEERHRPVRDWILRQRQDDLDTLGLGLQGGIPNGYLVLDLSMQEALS

B1: Tab107 (YP3, hIgG1) (antibody, V domains shown)
VH: QEQLVESGGGLVQPGASLTLTCTASGIDFSRYYMCWVRQAPGKGLEGIACIYIGGSGSTYYASWAKGRFTISKASSTTVTLQMTSLTAADTATYFCARGTNLNYIFRLWGPGTLVTVSS
VL: DVVMTQTPSPVSAAVGGTVTIKCQASQSINNGLAWYQQKPGQPPRLLIYSASNLESGVPSRFKGSGSGTEFTLTISDLECDDAATYYCQCIWDGNSYVNAFGGGTEVVVRT
notes: Control antibody; VH and VL recombined into human IgG1 CH and CL expression vectors; also called YP3 human IgG1 antibody
**Q.** How did the OD450 nm [1] turn out when B1 was run?
**A.** 0.05

**Q.** And the OD450 nm [2]?
**A.** 0.05

**Q.** What about the OD450 nm [3] of the same binder?
**A.** 0.05

**Q.** And the FACS fluorescence intensity [4]?
**A.** 2640

**Q.** And the competition rate [5]?
**A.** -86%

**Q.** And the competition rate [6]?
**A.** -104%

**Q.** What about the competition rate [7] of the same binder?
**A.** -19%

**Q.** What about the FACS fluorescence intensity [8] of the same binder?
**A.** 80

**Q.** What about the competition rate [9] of the same binder?
**A.** -80%
